{"source": "paper PMC4533228", "molecular_target": "homotypic K48-polyUb cyB1-NT^K64 (GST-bound single-lysine N-terminal fragment of cyclin B1 ubiquitinated with Ub^K48) (UniProt P0CG48)", "sequence (P0CG48 whole entry, looked up, the tested form may be a part)": "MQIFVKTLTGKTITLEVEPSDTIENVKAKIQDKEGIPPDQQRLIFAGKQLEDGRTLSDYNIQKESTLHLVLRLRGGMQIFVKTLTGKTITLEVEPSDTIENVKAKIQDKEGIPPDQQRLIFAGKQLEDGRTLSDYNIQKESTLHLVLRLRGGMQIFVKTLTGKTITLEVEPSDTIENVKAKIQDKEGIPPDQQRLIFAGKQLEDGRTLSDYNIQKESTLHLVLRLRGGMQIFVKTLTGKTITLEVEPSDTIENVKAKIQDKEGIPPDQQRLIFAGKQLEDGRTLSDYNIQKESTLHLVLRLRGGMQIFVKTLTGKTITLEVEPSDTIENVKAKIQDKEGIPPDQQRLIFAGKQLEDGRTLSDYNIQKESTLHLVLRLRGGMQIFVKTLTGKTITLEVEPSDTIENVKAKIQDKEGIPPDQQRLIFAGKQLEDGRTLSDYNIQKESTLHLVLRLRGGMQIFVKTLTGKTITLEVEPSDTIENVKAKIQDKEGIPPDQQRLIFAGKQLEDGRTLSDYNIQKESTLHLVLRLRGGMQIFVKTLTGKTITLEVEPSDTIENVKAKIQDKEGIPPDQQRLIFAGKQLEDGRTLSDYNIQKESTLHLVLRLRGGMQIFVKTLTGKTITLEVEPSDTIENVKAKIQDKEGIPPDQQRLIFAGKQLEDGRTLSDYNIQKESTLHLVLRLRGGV", "assay": "pull-down; resin-bound polyUb conjugates (≈20 nM) incubated with purified 26S proteasomes (10 nM) at 4°C, washed; bound proteasomes measured by cleavage of suc-LLVY-AMC at 37°C (one panel also with 300 nM hHR23A)", "data": [{"substance": "26S proteasome purified from rabbit muscle (complex)", "values": [{"measurement": "fold binding relative to K11 chains (K11-polyUb cyB1-NT^K64)", "result": 4.5, "unit": "fold"}]}]}
